Measurements published in IntAct's records for PubMed 25517094.

Biological target: SH3GL1, Q99961-1
Sequence (Q99961 whole entry): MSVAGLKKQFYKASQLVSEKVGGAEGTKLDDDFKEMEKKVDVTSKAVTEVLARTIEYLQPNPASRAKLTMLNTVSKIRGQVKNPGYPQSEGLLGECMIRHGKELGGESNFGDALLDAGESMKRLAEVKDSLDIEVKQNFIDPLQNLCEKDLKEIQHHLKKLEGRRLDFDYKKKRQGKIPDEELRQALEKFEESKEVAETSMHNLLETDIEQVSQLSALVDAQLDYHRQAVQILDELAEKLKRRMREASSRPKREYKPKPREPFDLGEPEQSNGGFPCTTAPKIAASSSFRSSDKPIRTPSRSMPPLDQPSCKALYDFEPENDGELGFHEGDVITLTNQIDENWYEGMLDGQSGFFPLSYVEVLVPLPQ

Chain of Beta-1 adrenergic receptor (Mus musculus), P34971 P272A;P273A (P34971 whole entry P272A/P273A): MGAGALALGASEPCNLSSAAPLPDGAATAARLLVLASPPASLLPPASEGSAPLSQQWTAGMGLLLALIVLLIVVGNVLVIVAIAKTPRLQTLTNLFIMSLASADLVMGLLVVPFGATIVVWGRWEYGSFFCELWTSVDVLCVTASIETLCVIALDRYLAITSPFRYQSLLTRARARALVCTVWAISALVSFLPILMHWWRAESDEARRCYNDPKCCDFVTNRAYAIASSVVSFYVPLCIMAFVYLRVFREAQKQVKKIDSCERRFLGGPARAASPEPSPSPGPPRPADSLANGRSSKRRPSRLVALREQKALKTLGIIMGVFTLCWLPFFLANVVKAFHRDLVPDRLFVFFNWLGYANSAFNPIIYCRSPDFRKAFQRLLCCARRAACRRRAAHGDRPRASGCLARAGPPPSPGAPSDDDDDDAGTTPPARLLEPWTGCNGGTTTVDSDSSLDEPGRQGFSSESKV
Chain of Beta-1 adrenergic receptor (Mus musculus), P34971 P272A;P273A;P283A;P284A (P34971 whole entry P272A/P273A/P283A/P284A): as the sequence (P34971 whole entry P272A/P273A) above, with P283A, P284A counted along it
Chain of Beta-1 adrenergic receptor (Mus musculus), P34971 R298E;R299E (P34971 whole entry R298E/R299E): as the sequence (P34971 whole entry P272A/P273A) above, with A272P, A273P, R298E, R299E counted along it
Chain of Beta-1 adrenergic receptor (Mus musculus), P34971 R271A (P34971 whole entry R271A): as the sequence (P34971 whole entry P272A/P273A) above, with R271A, A272P, A273P counted along it

Substance | effect of a mutation on the interaction
Beta-1 adrenergic receptor (Mus musculus), P34971 R271A | decreasing interaction strength
Beta-1 adrenergic receptor (Mus musculus), P34971 P272A;P273A | decreasing interaction strength
Beta-1 adrenergic receptor (Mus musculus), P34971 P272A;P273A;P283A;P284A | disrupting interaction strength
Beta-1 adrenergic receptor (Mus musculus), P34971 R298E;R299E | decreasing interaction strength
